Each block holds one substance with its values, some of them ahead of it.
Key:
Experiment in all cases: ITC
[1] = target: AnkG exZZUD (rat) (UniProt O70511)
[2] = target: AnkB ZU5N-ZU5C-UPA-DD tandem (ZZUD, aa 966-1535) (human)
[3] = target: AnkB exZZU (extension-ZU5N-ZU5C-UPA, aa 951-1443) (human)
[4] = target: AnkB exZZU F968A (human)
[5] = target: AnkB exZZU I964Q (human)
[6] = target: AnkB exZZU R1029E (human)
[7] = target: AnkB exZZU T1324D (human)

UniProt O70511, sequence (O70511 whole entry, the tested form may be a part): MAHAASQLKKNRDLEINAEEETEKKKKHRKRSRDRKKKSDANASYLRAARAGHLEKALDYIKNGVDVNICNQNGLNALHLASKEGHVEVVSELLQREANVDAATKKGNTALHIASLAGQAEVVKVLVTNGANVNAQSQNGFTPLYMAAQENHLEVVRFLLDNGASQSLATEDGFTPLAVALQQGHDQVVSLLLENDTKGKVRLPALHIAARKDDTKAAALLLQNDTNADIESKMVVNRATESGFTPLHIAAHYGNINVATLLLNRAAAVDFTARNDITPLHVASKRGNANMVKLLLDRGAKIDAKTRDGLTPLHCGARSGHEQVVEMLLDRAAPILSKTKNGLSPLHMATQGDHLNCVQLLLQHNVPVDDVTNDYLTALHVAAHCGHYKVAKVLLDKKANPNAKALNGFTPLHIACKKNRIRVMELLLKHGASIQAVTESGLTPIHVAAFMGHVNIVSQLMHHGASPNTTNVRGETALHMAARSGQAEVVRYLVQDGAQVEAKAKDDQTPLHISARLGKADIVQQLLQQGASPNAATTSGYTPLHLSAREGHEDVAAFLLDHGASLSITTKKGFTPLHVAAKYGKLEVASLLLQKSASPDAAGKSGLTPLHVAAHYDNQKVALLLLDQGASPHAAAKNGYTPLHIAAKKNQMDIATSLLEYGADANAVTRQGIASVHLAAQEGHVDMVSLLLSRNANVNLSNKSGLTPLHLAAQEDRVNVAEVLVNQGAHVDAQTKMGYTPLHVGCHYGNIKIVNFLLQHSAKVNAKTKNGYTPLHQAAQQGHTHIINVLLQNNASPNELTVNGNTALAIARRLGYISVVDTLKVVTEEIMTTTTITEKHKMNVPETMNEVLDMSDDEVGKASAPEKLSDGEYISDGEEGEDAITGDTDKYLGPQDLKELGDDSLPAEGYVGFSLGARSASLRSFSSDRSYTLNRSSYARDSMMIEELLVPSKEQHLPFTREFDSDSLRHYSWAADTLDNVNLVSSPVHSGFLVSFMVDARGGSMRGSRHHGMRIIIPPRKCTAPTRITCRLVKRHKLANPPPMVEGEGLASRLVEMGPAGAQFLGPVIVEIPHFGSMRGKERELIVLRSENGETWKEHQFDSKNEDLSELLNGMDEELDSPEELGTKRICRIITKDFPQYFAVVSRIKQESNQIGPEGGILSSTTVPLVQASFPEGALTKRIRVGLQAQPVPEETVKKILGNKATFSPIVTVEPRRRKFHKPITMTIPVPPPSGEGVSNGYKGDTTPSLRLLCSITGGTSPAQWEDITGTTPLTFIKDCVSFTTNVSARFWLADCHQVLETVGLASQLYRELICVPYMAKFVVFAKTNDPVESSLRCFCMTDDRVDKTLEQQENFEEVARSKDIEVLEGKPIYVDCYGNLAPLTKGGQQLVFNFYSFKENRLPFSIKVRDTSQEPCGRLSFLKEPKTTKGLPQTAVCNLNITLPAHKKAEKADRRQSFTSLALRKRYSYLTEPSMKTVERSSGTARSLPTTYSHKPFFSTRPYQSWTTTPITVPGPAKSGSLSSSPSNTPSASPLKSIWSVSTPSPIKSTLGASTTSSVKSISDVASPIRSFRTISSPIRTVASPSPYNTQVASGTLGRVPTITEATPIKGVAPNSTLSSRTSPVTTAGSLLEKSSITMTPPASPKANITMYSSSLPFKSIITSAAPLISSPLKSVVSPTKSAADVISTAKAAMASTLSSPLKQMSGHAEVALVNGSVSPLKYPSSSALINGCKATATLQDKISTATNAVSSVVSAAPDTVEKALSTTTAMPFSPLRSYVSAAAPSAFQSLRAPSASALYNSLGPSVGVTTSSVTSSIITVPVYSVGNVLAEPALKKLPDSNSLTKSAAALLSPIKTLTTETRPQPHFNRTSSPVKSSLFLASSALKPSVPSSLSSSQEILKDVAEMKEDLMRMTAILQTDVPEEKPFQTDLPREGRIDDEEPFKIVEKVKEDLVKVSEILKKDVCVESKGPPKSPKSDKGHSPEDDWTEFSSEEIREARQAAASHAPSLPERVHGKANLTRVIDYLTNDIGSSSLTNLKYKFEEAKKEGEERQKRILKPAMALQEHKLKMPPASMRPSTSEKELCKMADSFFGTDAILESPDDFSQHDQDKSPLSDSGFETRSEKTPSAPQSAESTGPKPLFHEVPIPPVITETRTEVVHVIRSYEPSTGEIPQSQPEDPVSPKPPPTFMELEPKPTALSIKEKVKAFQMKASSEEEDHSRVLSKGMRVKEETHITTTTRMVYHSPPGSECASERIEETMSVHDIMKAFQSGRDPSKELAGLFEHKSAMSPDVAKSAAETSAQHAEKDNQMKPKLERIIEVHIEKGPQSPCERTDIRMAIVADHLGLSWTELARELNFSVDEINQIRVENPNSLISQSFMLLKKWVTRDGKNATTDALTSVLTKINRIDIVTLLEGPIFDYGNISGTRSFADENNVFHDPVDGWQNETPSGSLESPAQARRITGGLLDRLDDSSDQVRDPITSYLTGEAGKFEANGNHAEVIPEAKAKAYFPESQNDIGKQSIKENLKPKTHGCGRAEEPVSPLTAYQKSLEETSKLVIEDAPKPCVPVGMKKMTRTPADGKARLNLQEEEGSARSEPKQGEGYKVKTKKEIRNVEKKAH

fold stronger binding than AnkG ZZUD without the extension [1]: > 10 fold
Substance: β2-spectrin R13-16 (from UniProt Q62261 1-2363) (domain or fragment)

Kd [2]: 4.9 µM
Kd [3]: 0.2 µM
fold decrease of binding against wild-type AnkB exZZU [4]: > 10 fold
fold decrease of binding against wild-type AnkB exZZU [5]: 4 fold
fold decrease of binding against wild-type AnkB exZZU [6]: 5 fold
Substance: β2-spectrin spectrin repeats 13-15 (R13-15) (domain or fragment)

fold decrease of binding against wild-type AnkB exZZU [7]: 5 fold
Substance: β4-spectrin spectrin repeats 13-15 (R13-15) (domain or fragment)
